# Measured values: the Human Domainome abundance scans (Beltran et al. 2025)
# ± gives the uncertainty stated by the source.
# B1: Death-inducer obliterator 1, residues 263 to 321; numbered along this chain, Q9BTC0 (parent)
# chain: GYDPNALYCICRQPHNNRFMICCDRCEEWFHGDCVGISEARGRLLERNGEDYICPNCTI
# Variants of: B1
# Assay: abundance fitness (aPCA) (normalised: wild type 0, dead -1); higher = more abundant; growth selection in yeast, the domain comes from the species named
# Conditions: Homo sapiens
row,Variant,abundance fitness
1,IYDPNALYCICRQPHNNRFMICCDRCEEWFHGDCVGISEARGRLLERNGEDYICPNCTI [G1I],0.16 ± 0.14
2,DYDPNALYCICRQPHNNRFMICCDRCEEWFHGDCVGISEARGRLLERNGEDYICPNCTI [G1D],0.181 ± 0.056
3,LYDPNALYCICRQPHNNRFMICCDRCEEWFHGDCVGISEARGRLLERNGEDYICPNCTI [G1L],0.266 ± 0.12
4,SYDPNALYCICRQPHNNRFMICCDRCEEWFHGDCVGISEARGRLLERNGEDYICPNCTI [G1S],0.199 ± 0.065
5,CYDPNALYCICRQPHNNRFMICCDRCEEWFHGDCVGISEARGRLLERNGEDYICPNCTI [G1C],0.138 ± 0.088
6,RYDPNALYCICRQPHNNRFMICCDRCEEWFHGDCVGISEARGRLLERNGEDYICPNCTI [G1R],-0.134 ± 0.14
7,MYDPNALYCICRQPHNNRFMICCDRCEEWFHGDCVGISEARGRLLERNGEDYICPNCTI [G1M],-0.144 ± 0.34
8,QYDPNALYCICRQPHNNRFMICCDRCEEWFHGDCVGISEARGRLLERNGEDYICPNCTI [G1Q],-0.167 ± 0.21
9,YYDPNALYCICRQPHNNRFMICCDRCEEWFHGDCVGISEARGRLLERNGEDYICPNCTI [G1Y],0.132 ± 0.13
10,GYVPNALYCICRQPHNNRFMICCDRCEEWFHGDCVGISEARGRLLERNGEDYICPNCTI [D3V],-0.177 ± 0.078
11,GYMPNALYCICRQPHNNRFMICCDRCEEWFHGDCVGISEARGRLLERNGEDYICPNCTI [D3M],0.199 ± 0.066
12,GYTPNALYCICRQPHNNRFMICCDRCEEWFHGDCVGISEARGRLLERNGEDYICPNCTI [D3T],0.023 ± 0.12
13,GYWPNALYCICRQPHNNRFMICCDRCEEWFHGDCVGISEARGRLLERNGEDYICPNCTI [D3W],-0.163 ± 0.11
14,GYFPNALYCICRQPHNNRFMICCDRCEEWFHGDCVGISEARGRLLERNGEDYICPNCTI [D3F],0.025 ± 0.097
15,GYKPNALYCICRQPHNNRFMICCDRCEEWFHGDCVGISEARGRLLERNGEDYICPNCTI [D3K],0.123 ± 0.084
16,GYIPNALYCICRQPHNNRFMICCDRCEEWFHGDCVGISEARGRLLERNGEDYICPNCTI [D3I],-0.007 ± 0.099
17,GYSPNALYCICRQPHNNRFMICCDRCEEWFHGDCVGISEARGRLLERNGEDYICPNCTI [D3S],0.174 ± 0.099
18,GYNPNALYCICRQPHNNRFMICCDRCEEWFHGDCVGISEARGRLLERNGEDYICPNCTI [D3N],0.155 ± 0.081
19,GYEPNALYCICRQPHNNRFMICCDRCEEWFHGDCVGISEARGRLLERNGEDYICPNCTI [D3E],0.043 ± 0.072
20,GYGPNALYCICRQPHNNRFMICCDRCEEWFHGDCVGISEARGRLLERNGEDYICPNCTI [D3G],-0.243 ± 0.096
21,GYCPNALYCICRQPHNNRFMICCDRCEEWFHGDCVGISEARGRLLERNGEDYICPNCTI [D3C],-0.048 ± 0.12
22,GYLPNALYCICRQPHNNRFMICCDRCEEWFHGDCVGISEARGRLLERNGEDYICPNCTI [D3L],-0.024 ± 0.048
23,GYRPNALYCICRQPHNNRFMICCDRCEEWFHGDCVGISEARGRLLERNGEDYICPNCTI [D3R],-0.049 ± 0.075

row,Variant,abundance fitness
1,GYAPNALYCICRQPHNNRFMICCDRCEEWFHGDCVGISEARGRLLERNGEDYICPNCTI [D3A],-0.735 ± 0.14
2,GYHPNALYCICRQPHNNRFMICCDRCEEWFHGDCVGISEARGRLLERNGEDYICPNCTI [D3H],0.111 ± 0.12
3,GYQPNALYCICRQPHNNRFMICCDRCEEWFHGDCVGISEARGRLLERNGEDYICPNCTI [D3Q],-0.004 ± 0.18
4,GYPPNALYCICRQPHNNRFMICCDRCEEWFHGDCVGISEARGRLLERNGEDYICPNCTI [D3P],0.135 ± 0.11
5,GYYPNALYCICRQPHNNRFMICCDRCEEWFHGDCVGISEARGRLLERNGEDYICPNCTI [D3Y],0.002 ± 0.069
6,GADPNALYCICRQPHNNRFMICCDRCEEWFHGDCVGISEARGRLLERNGEDYICPNCTI [Y2A],-0.03 ± 0.091
7,GVDPNALYCICRQPHNNRFMICCDRCEEWFHGDCVGISEARGRLLERNGEDYICPNCTI [Y2V],-0.112 ± 0.19
8,GMDPNALYCICRQPHNNRFMICCDRCEEWFHGDCVGISEARGRLLERNGEDYICPNCTI [Y2M],0.161 ± 0.1
9,GIDPNALYCICRQPHNNRFMICCDRCEEWFHGDCVGISEARGRLLERNGEDYICPNCTI [Y2I],0.298 ± 0.16
10,GKDPNALYCICRQPHNNRFMICCDRCEEWFHGDCVGISEARGRLLERNGEDYICPNCTI [Y2K],0.191 ± 0.12
11,GHDPNALYCICRQPHNNRFMICCDRCEEWFHGDCVGISEARGRLLERNGEDYICPNCTI [Y2H],0.156 ± 0.09
12,GSDPNALYCICRQPHNNRFMICCDRCEEWFHGDCVGISEARGRLLERNGEDYICPNCTI [Y2S],0.116 ± 0.083
13,GPDPNALYCICRQPHNNRFMICCDRCEEWFHGDCVGISEARGRLLERNGEDYICPNCTI [Y2P],0.102 ± 0.1
14,GLDPNALYCICRQPHNNRFMICCDRCEEWFHGDCVGISEARGRLLERNGEDYICPNCTI [Y2L],0.342 ± 0.06
15,GCDPNALYCICRQPHNNRFMICCDRCEEWFHGDCVGISEARGRLLERNGEDYICPNCTI [Y2C],0.039 ± 0.098
16,GNDPNALYCICRQPHNNRFMICCDRCEEWFHGDCVGISEARGRLLERNGEDYICPNCTI [Y2N],0.269 ± 0.15
17,GQDPNALYCICRQPHNNRFMICCDRCEEWFHGDCVGISEARGRLLERNGEDYICPNCTI [Y2Q],0.161 ± 0.18
18,GFDPNALYCICRQPHNNRFMICCDRCEEWFHGDCVGISEARGRLLERNGEDYICPNCTI [Y2F],0.351 ± 0.1
19,GDDPNALYCICRQPHNNRFMICCDRCEEWFHGDCVGISEARGRLLERNGEDYICPNCTI [Y2D],-0.03 ± 0.16
20,GEDPNALYCICRQPHNNRFMICCDRCEEWFHGDCVGISEARGRLLERNGEDYICPNCTI [Y2E],0.347 ± 0.12
21,GGDPNALYCICRQPHNNRFMICCDRCEEWFHGDCVGISEARGRLLERNGEDYICPNCTI [Y2G],0.165 ± 0.085
22,GRDPNALYCICRQPHNNRFMICCDRCEEWFHGDCVGISEARGRLLERNGEDYICPNCTI [Y2R],0.211 ± 0.07
